The record followed here is the supplement of paper PMC10567573.

The chains are these.
B1: TRIM15 (parent)
chain: QSSGKILLCPLCQEEEQAETPMAP
B2: TLE6 (parent)
chain: FWHDTLTEQLWRIFAGVHDEKAKP
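Also: lentivirally expressed fusions sorted by FACS into six bins by GFP to DsRed ratio, PSI derived from sequencing read proportions per bin multiplied by bin number.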

The variants in the first data set derive from B1. As to the kind of experiment: protein stability index of a GFP-peptide fusion (GPS, HEK-293T) (PSI 1-6); higher = more stable. The note with it: c terminus: a fixed tail appended.
Regarding QSSGKILLCPLCQEEEQAEQPMAP [T20Q], the protein stability index amounted to 3.5. As to QSSGKILLCPLCQEEEQAECPMAP [T20C], the protein stability index stood at 3.54. As to QSSGKILLCPLCQEEEQAEPPMAP [T20P], the protein stability index is 3.16.

On to QSSGKICLCPLCQEEEQAETPMAP [L7C], for which the protein stability index amounted to 3.77.

With QSSGKIHLCPLCQEEEQAETPMAP [L7H], the protein stability index was found to be 3.62.

Turning to QSSGKIYLCPLCQEEEQAETPMAP [L7Y], the protein stability index came to 3.15. On the same count and under the same terms, the result for QSSGKILLCPLCQEEEQAETPNAP [M22N] reads 3.52; that for QSSGKILLCPLCQEEEQAETPLAP [M22L], 4.28.

Take QSSGKILLCPLCQEEEQAETPCAP [M22C]: the protein stability index came to 5.56. Still for that read-out and setting: in the case of QSSGKILLCPLCQEEEQAETPAAP [M22A] it was 3.99. With QSSGKILLCPLCQEEEQAETPGAP [M22G], the protein stability index worked out at 4.22. On the same count and under the same terms, the result for QSSGKILLCPLCQEEEQAETPKAP [M22K] reads 3.16.

Take QSSGKILRCPLCQEEEQAETPMAP [L8R]: the protein stability index is 3.34.

For the variant QSSGKILTCPLCQEEEQAETPMAP [L8T], the protein stability index was 3.48. In the case of QSSGKILGCPLCQEEEQAETPMAP [L8G], the protein stability index came to 4.08. Regarding QSSGKILDCPLCQEEEQAETPMAP [L8D], the protein stability index was 4.91.

As for QSSGKILECPLCQEEEQAETPMAP [L8E], the protein stability index is 5.11.

Regarding QSSGKILLCPLCQREEQAETPMAP [E14R], the protein stability index turned out to be 3.3.

Regarding QSSGKILLCPLCQFEEQAETPMAP [E14F], the protein stability index amounted to 1.73.

Turning to QSSGKILLCPLCQNEEQAETPMAP [E14N], the protein stability index is 3.32. On the same count and under the same terms, in the case of QSSGKILLCPLCQYEEQAETPMAP [E14Y] it was 2.5; in that of QSSGKILLCPLCQIEEQAETPMAP [E14I], 2.54; in that of QSSGKILLCPLCQDEEQAETPMAP [E14D], 3.69. Same read-out and setting: the result for QSSGKILLCPLCQMEEQAETPMAP [E14M] reads 2.14. Same read-out and setting: the result for QSSGKILLCPLCQWEEQAETPMAP [E14W] reads 1.73; that for QSSGKILLCPLCQEEEQAETPMIP [A23I], 2.86. Regarding QSSGKILLCPLCQEEEQAETPMCP [A23C], the protein stability index came to 3.71.

As to QSSGKILLCPLCQEEEQAETPMEP [A23E], the protein stability index worked out at 4.61. Still for that read-out and setting: in the case of QSSGKILLCPLCQEEEQAETPMFP [A23F] it was 3.25. For QSSGKILLCPLCQEEEQAETPMVP [A23V], the protein stability index turned out to be 4.12. In the case of QSSGKILLCPLCQEEEQAETPMMP [A23M], the protein stability index was 3.69.

QSSLKILLCPLCQEEEQAETPMAP [G4L]: the protein stability index worked out at 2.93. QSSQKILLCPLCQEEEQAETPMAP [G4Q]: the protein stability index stood at 3.29. QSSTKILLCPLCQEEEQAETPMAP [G4T]: the protein stability index was determined as 3.66. Take QSSEKILLCPLCQEEEQAETPMAP [G4E]: the protein stability index is 3.72. Same read-out and setting: in the case of QSSNKILLCPLCQEEEQAETPMAP [G4N] it was 2.76.

Variants of B2 are the subject of the next data set. The description is as above. The note with it: c terminus: a fixed tail appended.
For the variant FWHDTLTEQLWRIFAGVHDEKAHP [K23H], the protein stability index amounted to 2.5. For the variant FWHDTLTEQLWRIFAGVHDEKALP [K23L], the protein stability index was determined as 1.89. On the same count and under the same terms, the result for FWHDTLTEQLWRIFAGVHDEKAFP [K23F] reads 3.09; that for FWHDTLTEQLWRIFAGVHDEKANP [K23N], 2.32. In the case of FWHDTLTEQLWRIFAGVHDEKARP [K23R], the protein stability index worked out at 1.52. Still for that read-out and setting: the result for FWHDTLTEQLWRIFAGVHDEKADP [K23D] reads 1.49. For FWHDTLTEQLWRIFAGVHDEKATP [K23T], the protein stability index was 2.3. On to FWHDTLTEQLWRIFAGVHDEKASP [K23S], for which the protein stability index stood at 2.17. FWHDTLTEQLWRIFAGVHDEKAQP [K23Q]: the protein stability index turned out to be 1.83. As to FWHDTLTEQLWRIFAGVHDEKAIP [K23I], the protein stability index is 1.64. For the variant FWHDTLTEQLWRIFAGVHDEKAVP [K23V], the protein stability index is 2.71. On the same count and under the same terms, the result for FWHDTLTEQLWRIFAGVHDEKAEP [K23E] reads 1.65; that for FWHDTLTEQLWRIFAGVHDEKAGP [K23G], 1.35.

As to FWHDTLTEQLWRIFAGVHDEKACP [K23C], the protein stability index is 2.13. On the same count and under the same terms, the result for FWHDTLTEQLWRIFAGVHDEKAAP [K23A] reads 1.78; that for FWHDTLTEQLWRIFAGVHDEKAPP [K23P], 1.78; that for FWHDTLTEQLWRIFAGVHDEKAMP [K23M], 2.8.

For FWHDTLTEQLWRIFAGVHDEKAYP [K23Y], the protein stability index was determined as 1.92.

On to FWHDTLTEQLWRIFAGVHDEKAWP [K23W], for which the protein stability index came out at 2.25. For FWHDTLTEQLWRIFAGVHDEKRKP [A22R], the protein stability index was determined as 1.84. The same measure, in the same setting: the result for FWHDTLTEQLWRIFAGVHDEKWKP [A22W] reads 1.38; that for FWHDTLTEQLWRIFAGVHDEKMKP [A22M], 2.03. Turning to FWHDTLTEQLWRIFAGVHDEKGKP [A22G], the protein stability index was found to be 1.88. On to FWHDTLTEQLWRIFAGVHDEKLKP [A22L], for which the protein stability index was 1.58.

For FWHDTLTEQLWRIFAGVHDEKKKP [A22K], the protein stability index is 1.64. As for FWHDTLTEQLWRIFAGVHDEKVKP [A22V], the protein stability index was 1.8. Same read-out and setting: the result for FWHDTLTEQLWRIFAGVHDEKFKP [A22F] reads 3.14.

In the case of FWHDTLTEQLWRIFAGVHDEKHKP [A22H], the protein stability index is 1.83. FWHDTLTEQLWRIFAGVHDEKSKP [A22S]: the protein stability index was determined as 2.06. Regarding FWHDTLTEQLWRIFAGVHDEKEKP [A22E], the protein stability index was 1.75. In the case of FWHDTLTEQLWRIFAGVHDEKCKP [A22C], the protein stability index is 1.81. For the variant FWHDTLTEQLWRIFAGVHDEKNKP [A22N], the protein stability index came out at 1.94. Consider FWHDTLTEQLWRIFAGVHDEKPKP [A22P], for which the protein stability index turned out to be 2.11. Still for that read-out and setting: in the case of FWHDTLTEQLWRIFAGVHDEKTKP [A22T] it was 2.15.

Take FWHDTLTEQLWRIFAGVHDEKDKP [A22D]: the protein stability index worked out at 1.9. As to FWHDTLTEQLWRIFAGVHDEKIKP [A22I], the protein stability index worked out at 1.74.

On to FWHDTLTEQLWRIFAGVHDEKYKP [A22Y], for which the protein stability index came out at 1.37. FWHDTLTEQLWRIFAGVHDEKQKP [A22Q]: the protein stability index came out at 1.53.

On to FWHDTLTEQLWRIFAGVHDEYAKP [K21Y], for which the protein stability index turned out to be 3.31. For the variant FWHDTLTEQLWRIFAGVHDEKAKA [P24A], the protein stability index was 1.7. As to FWHDTLTEQLWRIFAGVHDEKAKE [P24E], the protein stability index turned out to be 2.03. On the same count and under the same terms, the result for FWHDTLTEQLWRIFAGVHDEKAKC [P24C] reads 2.95; that for FWHDTLTEQLWRIFAGVHDEKAKL [P24L], 1.5. On to FWHDTLTEQLWRIFAGVHDEKAKD [P24D], for which the protein stability index is 1.65. FWHDTLTEQLWRIFAGVHDEKAKQ [P24Q]: the protein stability index was determined as 1.9. Still for that read-out and setting: the result for FWHDTLTEQLWRIFAGVHDEKAKW [P24W] reads 1.92; that for FWHDTLTEQLWRIFAGVHDEKAKH [P24H], 2.1; that for FWHDTLTEQLWRIFAGVHDEKAKM [P24M], 1.64.

As for FWHDTLTEQLWRIFAGVHDEKAKF [P24F], the protein stability index came to 2.44. For the variant FWHDTLTEQLWRIFAGVHDEKAKV [P24V], the protein stability index turned out to be 2.97. FWHDTLTEQLWRIFAGVHDEKAKK [P24K]: the protein stability index is 1.78. Still for that read-out and setting: the result for FWHDTLTEQLWRIFAGVHDEKAKY [P24Y] reads 1.58; that for FWHDTLTEQLWRIFAGVHDEKAKR [P24R], 1.69.

Consider FWHDTLTEQLWRIFAGVHDEKAKG [P24G], for which the protein stability index stood at 1.66. The same measure, in the same setting: in the case of FWHDTLTEQLWRIFAGVHDEKAKI [P24I] it was 3.17. FWHDTLTEQLWRIFAGVHDEKAKT [P24T]: the protein stability index was 1.86. On the same count and under the same terms, the result for FWHDTLTEQLWRIFAGVHDEKAKS [P24S] reads 2.07; that for FWHDTLTEQLWRIFAGVHDEKAKN [P24N], 2.68.
